Measured values: patent US20050049201A1, “Detection and removal of lead using lead-binding proteins” (priority 2001, published 2005)

Tests used:
[1] = lead binding; Quintanilla-Vega 1995, Smith 1998; read-out: dissociation constant (Kd) of high affinity lead-binding region; cited from earlier work
[2] = Solid phase assay for lead: protein on nitrocellulose with chromogenic dye; conditions: combined results, various buffers, pH, salts and dyes
Method: A solid phase assay for the detection of lead was also developed using one or more synthetically produced lead-binding proteins. Both TB4 and ACBP and the various mutants that have been generated from them can be used in this assay. The experiment is performed by binding the protein to a solid surface support, such as nitrocellulose paper, cotton, glass microfibers, or polystyrene beads using, for example, methods described herein. Then the sample to be tested, such as saliva or blood, is placed onto the surface and allowed to react with the protein. After washing with buffer, or example a neutral non-chelating buffer to remove any unreacted material, the sample is treated with a ligand that can detect a lead-leading binding protein complex, for example, a ligand that can cause a color chance upon detecting a lead-protein complex. Examples of such ligands include, sodium sulfide and sodium rhodizonic acid. Furthermore, the concentration of the lead in the sample being tested may be determined by the intensity of the spot produced upon binding of the dye. […]
As a control, the assay was tested using solutions containing several different buffers, pH conditions, and salts for reaction with the sodium sulfide and sodium rhodizonic acid dyes used. […] The pH was determined empirically for rhodizonic acid over a range of pH 4 to pH 8. […]

B1: acyl-CoA binding protein (protein, listed as Homo sapiens)
chain: MSQAEFEKAAEEVRHLKTKPSDEEMLFIYGHYKQATVGDINTERPGMLDFTGKAKWDAWNELKGTSKEDAMKAYINKVEELKKKYGI
In the case of B1, the Kd [1] is listed as roughly 1 nM and the “performance of solid phase lead detection assay” value [2] is listed as “works well under various conditions”.
